The chains are these.
T1: human LAG3 of the LAG3 and MHC II binding assay kit (Cisbio, 64ICP03PEG) (human, UniProt P18627 23-450, limits assumed)
T1 construct: Bought kit reagent
T1 sequence (looked up): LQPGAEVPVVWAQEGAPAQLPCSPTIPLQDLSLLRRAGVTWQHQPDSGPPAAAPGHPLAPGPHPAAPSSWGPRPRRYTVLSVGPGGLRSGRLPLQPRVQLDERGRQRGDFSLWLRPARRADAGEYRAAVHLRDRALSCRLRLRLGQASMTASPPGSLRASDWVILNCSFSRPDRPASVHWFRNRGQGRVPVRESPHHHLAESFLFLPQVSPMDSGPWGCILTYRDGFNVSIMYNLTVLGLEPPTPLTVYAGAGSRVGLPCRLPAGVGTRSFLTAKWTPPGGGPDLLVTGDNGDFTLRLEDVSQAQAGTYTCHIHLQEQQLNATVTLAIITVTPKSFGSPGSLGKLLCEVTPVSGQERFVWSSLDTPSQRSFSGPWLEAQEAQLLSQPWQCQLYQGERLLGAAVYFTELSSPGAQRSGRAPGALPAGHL

T2: LAG3 antigen of the Octet RED96 runs (UniProt P18627 23-450, limits assumed)
T2 sequence (looked up): T1 sequence (looked up)

B1: 147H-13 (antibody, V domains shown)
VH: EVQLVQSGAEVKKPGASVKVSCKASGYTFTNYWLGWIKQAPGQGLEWIGDIYPGGDYINYNEKFKGKATLTADTSISTAYMELSRLRSDDTAVYYCARPNLPGDYWGQGTTVTVSS
VL: DIVMTQSPLSLPVTPGEPASISCRSSKSLLHSNGITYLYWYLQKPGQSPQLLIYQVSNLASGVPDRFSGSGSGTDFTLKISRVEAEDVGVYYCAQNLELPWTFGGGTKVEIK
notes: also called 147H4-13
B2: 147H 3794 (antibody, V domains shown)
VH: B1 VH with T28L, N59V
VL: B1 VL with G34A, N96Y
B3: 147H 3811 (antibody, V domains shown)
VH: B1 VH with T28L, N59V, G103K, Y105H
VL: B1 VL with G34A, S61T, A94G, N96Y
B4: 147H 3668 (antibody, V domains shown)
VH: B1 VH with N59V
VL: B1 VL with G34A, S61T
B5: 147H 3550 (antibody, V domains shown)
VH: B1 VH with G103K, Y105H
VL: B1 VL with G34A, N96Y
B6: 147H 3807 (antibody, V domains shown)
VH: B1 VH with N59V, G103K, Y105H
VL: B1 VL with G34A, N96Y
notes: also called B3807
B7: 147H 3809 (antibody, V domains shown)
VH: B1 VH with T28L, N59V, G103K, Y105H
VL: B1 VL with G34A, N96Y
B8: 147H 3508 (antibody, V domains shown)
VH: B1 VH with G103K, Y105H
VL: B1 VL with G34A, A94G
B9: 147H 3808 (antibody, V domains shown)
VH: B1 VH with N59V, G103K, Y105H
VL: B1 VL with G34A, A94G, N96Y
B10: 147H 3421 (antibody, V domains shown)
VH: B1 VH with G103K, Y105H
VL: B1 VL with G34A
B11: 147H 3549 (antibody, V domains shown)
VH: B1 VH with G103K, Y105H
VL: B1 VL with G34A, N96Y, L99E
B12: 147H 3663 (antibody, V domains shown)
VH: B1 VH with T30E, N59V
VL: B1 VL with G34A, S61R
B13: 147H 3792 (antibody, V domains shown)
VH: B1 VH with N59V
VL: B1 VL with G34A, N96Y
B14: 147H 3669 (antibody, V domains shown)
VH: B1 VH with T28L, N59V
VL: B1 VL with G34A
B15: 147H 3810 (antibody, V domains shown)
VH: B1 VH with T28L, N59V, G103K, Y105H
VL: B1 VL with G34A, S61T, N96Y
notes: also called B3810
B16: 147H-6 (antibody, V domains shown)
VH: B1 VH with E1Q
VL: B1 VL

Where a chain is given by its changes, count along the chain named.

The results in this text go back to patent US20190225687A1 (I MAB, published 2019).

The first assay addresses T1, human LAG3 of the LAG3 and MHC II …. As to the kind of experiment: TR-FRET LAG3/MHC II binding assay (Cisbio); blocks MHC II. How it is done: To measure the ability of anti-LAG3 monoclonal antibodies to block the interaction between human LAG3 and MHCII, the LAG3 and MHC II binding assay (Cisbio, 64ICP03PEG) were performed utilizing homogeneous TR-FRET technology, following the protocol provided by the kit manufacturer. Anti-human LAG3 antibodies were 3-fold diluted ranging from 100 nM to 5 pM (10 points). Fluorescence data was acquired on a PerkinElmer Envision plate reader and a four-parameter dose-response curve was fitted to obtain IC50 of each antibody.
In general terms: TR-FRET usually uses a lanthanide donor and a delayed reading to cut background.
Usually IC50 stands for the concentration needed to halve the response being measured. Read a low IC50 as inhibition by little substance. In the case of B1, the 50% inhibitory concentration (IC50) lay in the range of 2.2 to 7.6 nM.

B2 came in with an IC50 of 0.63 nM. In turn, B3 gave an IC50 of 0.59 nM. In turn, B4 had an IC50 of 0.9 nM.

The molecule B5 came in with an IC50 of 0.39 nM.

B6 showed an IC50 of 0.31 nM. The IC50 values of the last two molecules are within 1.5-fold of each other. With B7, the IC50 turned out to be 0.96 nM. B8 yielded an IC50 of 0.55 nM. Take B9: the IC50 is 0.5 nM. Regarding B10, the IC50 came out at 1.5 nM. For the molecule B11, the IC50 was determined as 0.44 nM.

With B12, the IC50 is 2.7 nM. The molecule B13 showed an IC50 of 0.73 nM. For B14, the IC50 was 1.2 nM.

Turning to B15, the IC50 was determined as 0.63 nM. This IC50 lies about 1.9-fold lower than the previous one.

The target in another assay is T2, LAG3 antigen of the Octet RED96 runs. Kind of assay: BLI, Octet RED96, full kinetics, antigen 3.125-50 nM. The protocol: The binding affinity was calculated by software in Octet® RED96 System.
On the technique in general: In BLI a coated tip is dipped into the sample, and binding shifts an interference pattern.
In general, Kd refers to the free concentration of one partner at which half of the binding sites on the other are occupied at equilibrium, for simple one-to-one binding. As usually defined, the koff is a measure of how fast the partners let go of each other. Read a high koff as fast dissociation. The term kon denotes the rate constant with which the complex forms. In turn, B16 gave a dissociation constant Kd of 26.5 nM, a koff of 0.00312 s⁻¹ and a kon of 118000 M⁻¹ s⁻¹.
